For this experiment, the target named is F-actin (actin from rabbit skeletal muscle, polymerised) (rabbit) (UniProt P68135). The experiment is described as follows: co-sedimentation; high-speed cosedimentation titration: constant 500 nM FL-HTT with increasing F-actin, 30 min RT; apparent constant (Kdapp); fit accounts for ligand depletion and incomplete saturation.

From article PMC12448071 come the findings set out here.

As to “recombinant human full-length wild-type HTT (21 glutamines), P42858 1-3142”, the Kd came out at 236 nM.
